This test has as its target Type II Hsp40 Sis1 (S. cerevisiae (endogenous in yeast)) (UniProt P25294). Briefly: co-IP; yeast cell extracts in Buffer A (150 mM NaCl, 50 mM Hepes pH 7.4, 1 mM EDTA, 0.1% Triton X-100), indicated antisera 1 hour at 4°C, Protein G beads, immunoblotting; extracts with or without Apyrase (Ssa1); WT or Δhsp104 strain (Sis1).
UniProt P25294, sequence (P25294 whole entry): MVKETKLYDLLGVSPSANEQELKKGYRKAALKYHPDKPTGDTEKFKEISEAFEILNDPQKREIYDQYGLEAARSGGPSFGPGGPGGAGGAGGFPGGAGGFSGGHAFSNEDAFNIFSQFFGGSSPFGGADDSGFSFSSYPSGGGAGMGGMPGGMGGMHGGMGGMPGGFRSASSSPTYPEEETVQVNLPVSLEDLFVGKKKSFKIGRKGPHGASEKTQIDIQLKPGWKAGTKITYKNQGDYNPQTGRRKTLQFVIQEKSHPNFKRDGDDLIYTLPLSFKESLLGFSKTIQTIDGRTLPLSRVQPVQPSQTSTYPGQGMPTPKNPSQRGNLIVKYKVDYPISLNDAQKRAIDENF

With short-lived GFP (slGFP), the fold change of immunoprecipitable Sis1:slGFP complexes in Δhsp104 against WT was 1.5 fold.

The record behind these values is publication PMC3547041.
